Measured values published in the DeepSol protein solubility set.

Assay: soluble on expression in E. coli; label from the status in PepcDB or PDB records

Sequence | soluble on expression in E. coli
MSLELKPKRFLVLDDQLVLRKLISRQASFFTRFAVEIDEFSDPAEALRSIAEGGYHLVITDIGMPGMNGIDFIKNVARLGYQSALLIISGYDGKTLQTIADMSVNLGLSCTRFLSKPYSAEAFVAALNGIFSEMERSEAPAVGDVAQLLADLGGETFRMQFAPVRSLHGRRLAGFTLRTLQLPDGRRLAFDRLLALLAGRRMASAALLEIVVERTARLLQDMRLSAGIDDCRVNIRIDEACLSADNVFDRCFMALQQSEVSPACLGFALADGLNRRSDALCFENIAKVKYLGFRLLADGFGQGSLTVSNLFRLPFDQVNAPLEALQWMKILQGEDPGAFRLLRSFGLGQAPVCATGLDDEESLALAQALGCGLGEGDAVSLAVPEEELLQEMAAVPEGEGHHHHHH | soluble
MSLEMKTYIIEKLRETEAIYYIEILLAVESGSRAWGFASPDSDYDIRFIYRHSKDWYLTPWDKDETITFMTEDDLDGSGWDLNKTFHLLLKSNAALLSWFYSPIVYIENKSFTKLFKPLVDQCFSPIAVSFHYLSMSKKYLESCRNDEVKLKSYFYCLRTALSGKWITEKKTVPPVLFSDLLVLADSTIRTKIENLIALKATKGESYFHPNDWELFEFMERQISENEEKAKSLSGSKTDKAQMEKVFREIISEGHHHHHH | not soluble
MSLENGYTPKLMYERLSKRLGSLFTFFSEPAFENLLPPPPPEQYRRPLTLVVTLDDFLIHSNWDTQHGWRTGKRPGLDYFLGYLSQYYEIVVFSSNLQMYSDKTVNKLDPYHAYISYALFREACRYKDGKLIKDLSLLNRDLGKTVMIDVDEDSAALQPENSIIVKKWEGQPDEYLISLIPFLEYLATQPVKDVRPILNSYKDKSNEGHHHHHH | soluble
MSLENISETLRTLMNRKNLNHRYEALMTAVYQDPDVRQFLAAHQNELSSDALERSAAKLYEFCEEKRKIARHEPTQAPGYQPTLVMSNHLIDIAYQPTPQMQEQQAAHALQQRVRSISMPKNIQTADLKTYDQDGDRATALMAALDFIDAYTQAPKRFHRGLYLYGSFGVGKTYLLGGMANALAAKGFNTTLIHFPSFAVEMKRSISNNTSADKVDAIKRAPILMIDDIGADASSTWIRDDVLGVILEYRMQEELPTCFSSNFSMQELQDGYLTLSQKGDEEPVKAQRIMQRVRYLASEIEMVGRNRRLNPDAEGHHHHHH | soluble
MSLENKHVTIYDIAERLNLATSTISRALKDHHTISDKTIKKVKKTAEEMGFVPNTLAAGLRGNKTRTIGVLIPTVTQPFLSSLISGIEITAQKSDYTVIIMQSHDSYEEEVNMAKSLYSNRVSGVICSLAMETRDTAHFHQFSNNNIPLVFVDRVPKDYNTFRVVIDNYTAGYKATKHLIEQGCIRIAHLTAGSELGNLYNERKRGYIEALKDHNIEVEEELIINLNSVTYEDGVKASNALFDLKPIPDGLFAPGDILAVSAVQTAKKRGTKVPEEFKVIGFNNDPISQIIDPNLSTITHPAEKMGKAAAEIIIKNLKSSKNDDAKEITFLNTEVLARESSSKEGHHHHHH | soluble
MSLENNNEIFKEKSRENFNKTADIYDESHDGKFVAPMYDEIIKRILRANPKTVLDVGCGTGNVLKILAKDENLSLYGLDLSEKMIEIAKKNLKGRAELKLGDSENMPWKSNSFDVIVCNASFHHYPNPKKVLIEMKRILKKDGTLIIGDPTAPVIYRQILNLYCKISNKGDYKLYSKKEIENIMKECGFEPFNFIHINHGSFAVNAKIREGHHHHHH | soluble
MSLENPYQLVEDIEGIGFKRADNLAEQIGIAADSPRRIRAAILHQIFQHAVQTGDTYVPAETLLQQTIRILETSRPIEIQPDQVATVIIQLVEEGKIQQEETNLYENSLYFSEWGIGNSIQRLLSRKKEIHYPEKEVQKNIRRIEKIFGIQYGPSQEQAIAEAIRSPLFILTGGPGTGKTTVINGIVNLFAELNGLELDPSKYTQEIFPILLAAPTGRAAKRMNETTGLPASTIHRLLGLNGREKTPSVSTKELEGGLLIVDEMSMVDTWLANTLFKAIPTNMQVILVGDKDQLPSVGPGQVLHDLLEIEQIPKMELNQIYRQGDGSSIIPLAHEIKEGRLPKDFTKNQKDRSYFRSDAYQIEPLISKIVEKAKNKGFRAQDIQVLAPMYRGPAGIDALNKMMQEIFNPGKPGKKEVHWNDTVYRIGDKVLQLVNTPELNVFNGDMGEITGIILAKDSEDKVDELVIQFDANEVTYKRNEWNKITLSYCCSIHKSQGSEFKMVILPMVHQYQRMLQRNLLYTAVTRSKELLILLGEEQAYVTCVANESASRMTTLKSRIMDNDKMNEGHHHHHH | soluble
MSLENWRFIEANSDYMVSDHGRILSFKGKSKLIISSSITAKGYEYVAIRQKGIYVGYSVHRLVATAFIPNPKRLPQVNHLDGNKLNNHVANLEWCDAYDNVMHAIRTGLRPSSPALSPVPCATTDEAGNILQAYPSMNALVKGEQMNPKQRNWLVLHLLHPERLKQSAMKKKSRAERSGSEECFLIAPEIPVLTVKADSIGEFEAGNPLGIGKSSNSVGEFEAGNPLGIGKSSNSVEEFEAGNPLGIGKSSNSVGEFKAGNVCVQPVSFSFVSSPFPLISLFAPIHHSVTQHYYRRLSPEESAIFGFNTYILPRERGQRKEFLQEGHHHHHH | not soluble
MSLENYQFPKDFLWGGAIAANQAEGAFKVDGKGISLADLHKYHKGKTNDEISEEQHKGVSLADIKASMEDKVNYYPKRHGIDFYHTYPEDLALLAEMGFKTFRTSLDWTRIFPTGEETEPNEAGLKYYDQLIDKIIELGMEPIITILHYETPVEIVLNNGGWHNRKVIDLFEKYGKTVLDRYNKKVKYWIVINQINLIQFEPFNSTAIPYDAVDDYLSATYQAVHNQFVASAKIYEYGKALNPDLMIGTMLADCTAYPFSCDPDDIVLAMKRNRMEYFFADVQFQGEYPQYALNYFDENNIHIEITEDDKAVLQKNTMDYLALSYYYSQMVDSKKNDLDPASITPNPHLKANPWGWAVDPKGLYNALSQYWDRYHKPIIIAENGFGMYDKLENGEIHDDYRIDYLSAHLKEMKRAMYDGVEIIAYCAWGPIDIVSCSSAQMEKRYGFIYVDLDNEGNGTGKRIKKDSFSWYKKVIESNGEDLEKGIITITTDPNSSSVDKLAAALEHHHHHH | soluble
MSLEPVQDDSVSGNFYISGKYMPSASHFGVFSAKEEKNPTVALYGLKQDWNGVSASSHADADFNNKGYSFKYENNPFLGFAGAIGYSMGGPRIEFEVSYETFDVKNQGGNYKNDAHRYCALDRKASSTNATASHYVLLKNEGLLDISLMLNACYDVVSEGIPFSPYICAGVGTDLISMFEAINPKISYQGKLGLSYSINPEASVFVGGHFHKVAGNEFRDISTLKAFATPSSAATPDLATVTLSVCHFGVELGGRFNFEGHHHHHH | not soluble
MSLERSLSMELVRVTEAAALASARWMGRGKKDEADEAATSAMRDVFDTVPMKGTVVIGEGEMDEAPMLYIGEKLGNGYGPRVDVAVDPLEGTNILASGGWNALTVIAVADHGTLLNAPDMYMQKIAVGPEAVGCIDIEAPVIDNLKAVAKAKNKDVEDVVATILNRERHAKIISELREAGARIKLINDGDVAGAINTAFDHTGVDILFGSGGAPEGVLSAVALKALGGEIIGKLLPQSEEEITRCHKMGLDLSKVLRMEDLVKGDDAIFAATGVTDGELLKGVQFKGSVGTTESLVIRAKSGTVRFVDGRHSLKKKPNLVIRPEGGSHHHHHH | soluble
MSLESAVKAESAGKSVAASLKARLEKTYSAQDLKVLSVSETPVKGIYEVVVSGRQIIYTDAEGGYMFVGELINIDTRKNLTEERAADLNKIDFASLPLDKAIKEVRGNGKLKVAVFSDPDCPFCKRLEHEFEKMTDVTVYSFMMPIAGLHPDAARKAQILWCQPDRAKAWTDWMRKGKFPVGGSICDNPVAETTSLGEQFGFNGTPTLVFPNGRTQSGYSPMPQLEEIIRKNQQEGHHHHHH | soluble
MSLESSQSLELLKNKIEQYALNELSNYTEGKIQVTADNIDPRLNLKVCNDNKLEVFNPYQTPMLNTSTMGIKCLEENNHWTLYIPVKITIFKSVLVAKRALLKGTKISNSDIYQTELDVQKLKQGYFTDSKELIGLVCKHDITPNSPLNPFNIELAKLVHKGEQVSIIAAHDNLTVSMDGVAMDEGALGDSVKVKNLSSKRIIEAQVTGKKTVKVTFEGHHHHHH | soluble
MSLETVRLQRELIEAQRQTYNEMRTYFTVNGVEGVIGAVFDEGVITLRVPSEVLFAPGAVELAPGADRVLATLKDLFIRRREQNINIKGFTDDVQPSANARFKDNWEVSALRSVNVLRYFLGAGIEPARLTATGLGELDPLFPNTSDENRARNRRVEFVLERRVVREGHHHHHH | soluble
MSLEYENEIMDLINDYDMLRVLKHFTVAHVDYAKNITRYTEIPQIRVRAYLERLKEMGLLDYYTNTSIKRTEAKLKKSAEVHKHHTYYQINKKAEAVLKEITPKLYVKVLGKEKLELLCSRKVRKTSPDRCTGLQAMGLIDKCFDLTELGREVFEAALRMQAIRCQDEGHHHHHH | soluble
MSLEYIIKNGIVYDPLNGINGEKMDICVKDGKIVESVSDNAKVIDASGCVVMPGGIDSHSHVAGAKVNVGRIFRPEDSKREIYAKKGLRTGTGFSVPSTYKTGYQYSEMGYTTVIEAAMPPLIARHTHEEFMETPQIDKAAMPLFGNNWMVLEYLKEGDIKACAAFVAWLLKAVKGFAIKIVNPGGTEAWGWGKNVHSLDDPVPYFDITPREIVRGLAEVNELLGLPHSIHVHPNNLGHPGNWETTLETMKCVEGVEAKPRVGERETSYYNTHCQFHSYGGTSWKDFESKAIEIAEYVNKSKHVVIDVGQVTLDETTTMTADGPMEYDLHMTNGLKWANCDVELETGSGVVPFIYSPKGPVYAVQWAIGLELFLNTNTDKVLLTTDHPNAGPFTRYPRVIAWLMSKKYRDEWLYNKVHKWAQQRSHVADADKEYDLYEIAKITRANQAKVLGLSETKGHLGVGAEADIAIYAIDPEEKDGKKIEKAFRYAKYVLKGGEVVVKDGNVVKEVFGDTIYVDVQVGEDLMNEVLKDVGEKFRRYYSVNLENYPVSDEYANSWRVIKIDATDINEGHHHHHH | not soluble
MSLFEQLDELAAQGKPAALLTIVRKDGSAPRDVGDKMIVTADEEYGTIGGGTVEHLAVQDARSVLSGADDPGIRTYELERGGNTGMVCGGEMDVFIDHVRGQAQLYIAGGGHISVELAPLAERLGYAVTVVDDREAYADPTQFPDETDVIHGEYGEALGDLPMGTETAVAVATRSGTFDQAAVAAALDGEAGYVGLVASETKANHVLDSLAESGYARRDLSRVQTPVGLDLGGSGPAAVALSVLAEVTMDRHDATGARATRLNLDDLVVVRGGGDLGSGVVYRLQQAGFPVIVTEVDQPTVVRRAVAFGAALYEDEVEVEGVTGRAAADIDEALELLADDVVPVLVDPEATVADDLDAAVLVDAIMAKGAFDTGTRREDADVVVGMGPGFEAGEDVDAVVETDRGHELGRVFYDGTASEYDGEPGERRGYTHERVLRAPTDGEWTPTVAIGDSVTAGDVVGTVGDRPVETEIDGLVRGLVHGGLSVSEGTKLGDVDPRGESVDPTKISDKALCLGGGVLEAVLRLRLEHHHHHH | not soluble
MSLFIDAHNHLDFFEEQEKLNKALDIIKNDNIITLGCSMDTKSYKFTKSLALKNKNIIPCFGIHPSRAHENFKNLECFDEYIRESKIIGEIGLDYVWVKEKEKYPHMKRVFTYFLEEAKKYNKITNIHTKGAESEIYNYIKKYELKTPIIHWYSGDKDTLKKLLDYGCYFTISVDIGYSKLSKEIVQLLPIDKILTETDGPTSLEWVNGDYGYPNVIKNVVKEISKIKNIQEEEVKGVIENNFKTLIRKEGITLEGHHHHHH | soluble
